Assay results as given in the supplement of paper PMC7877785.
± gives the uncertainty stated by the source.

Assay: self-splicing fitness, log relative to wild type (ln ratio); higher = more splicing; Tetrahymena group I intron in knt gene, E. coli kanamycin selection, DiMSum; sequences stand for … in CUCUCU…GGAGGGAAAAGUUAUCAGGCAUGCACCUGGUAGCUAGUCUUUAAACCAAUAGAUUGCAUCGGUUUAAAAGGCAAGACCGUCAAAUUGCGGGAAAGGGGUCAACAGCCGUUCAGUACCAAGUCUCAGGGGAAACUUUGAGAUGGCCUUGCAAAGGGUAUGGUAAUAAGCUGACGGACAUGGUCCUAACCACGCAGCCAAGUCCUAAGUCAACAGAUCUUCUGUUGAUAUGGAUGCAGUUCACAGACUAAAUGUCGGUCGGGGAAGAUGUAUUCUUCUCAUAAGAUAUAGUCGGACCUCUCCUUAAUGGGAGCUAGCGGAUGAAGUGAUGCAACACUGGAGCCGCUGGGAACUAAUUUGUAUGCGAAAGUAUAUUGAUUAGUUUUGGAGUACUCGUGGUCG
Summary of the method: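 Pooled colonies went to amplicon sequencing on an Illumina HiSeq 2500 after six replicate transformations. The plates were LB agar with 100 μg/mL carbenicillin, 50 μM IPTG and 0.2% rhamnose, with or without 25 μg/mL kanamycin, incubated overnight at 37°C or 30°C. The E. coli BL21(DE3) library had all eight P1ex-region intron nucleotides randomised, the intron placed in the knt kanamycin-resistance gene on pET-22b(+). DiMSum fitness is the error-weighted combination of replicate fold changes, kanamycin against none, normalised to wild type.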

Sequence	self-splicing fitness (ln) (30 °C)	self-splicing fitness (ln) (37 °C)
CUUUAGCAAUAUUACGGGCA	-3.41 ± 0.26	-2.67 ± 0.21
CUUUAGCAAUAUUACGGGUG	-0.377 ± 0.072	0.108 ± 0.091
CUUUAGCAAUAUUACGGUCG	-0.496 ± 0.055	-0.259 ± 0.083
CUUUAGCAAUAUUACGUAAU	-2.49 ± 0.16	-2.78 ± 0.33
CUUUAGCAAUAUUACGUAGA	-2.52 ± 0.22	-2.53 ± 0.33
CUUUAGCAAUAUUACGUCAC		-0.481 ± 0.4
CUUUAGCAAUAUUACGUCCG	-0.0797 ± 0.084	-0.326 ± 0.099
CUUUAGCAAUAUUACGUCCU		-1.9 ± 0.31
CUUUAGCAAUAUUACGUCGU	-2.27 ± 0.36	-3.05 ± 0.37
CUUUAGCAAUAUUACGUCUG	-0.534 ± 0.094	-0.218 ± 0.12
CUUUAGCAAUAUUACGUGUC	-2.98 ± 0.21	-1.55 ± 0.17
CUUUAGCAAUAUUACGUUAC	-3.92 ± 0.34	-1.74 ± 0.29
CUUUAGCAAUAUUACGUUGU	-3.88 ± 0.17	-3.45 ± 0.21
CUUUAGCAAUAUUACGUUUA	-3.03 ± 0.24	-1.64 ± 0.17
GAAAAGCAAUAUUACGAAAG	-3.5 ± 0.15	-1.9 ± 0.14
GAAAAGCAAUAUUACGAAUU	-1.37 ± 0.11	-0.667 ± 0.12
GAAAAGCAAUAUUACGACUC	0.143 ± 0.2	-0.00506 ± 0.28
GAAAAGCAAUAUUACGAGCU	-0.618 ± 0.069	-0.352 ± 0.091
GAAAAGCAAUAUUACGCACA	-0.807 ± 0.093	-0.0907 ± 0.14
GAAAAGCAAUAUUACGCCGC	-2.23 ± 0.25	
GAAAAGCAAUAUUACGCGAU	-2.88 ± 0.28	-2.32 ± 0.33
GAAAAGCAAUAUUACGCGCC	-2.06 ± 0.16	-1.25 ± 0.17
GAAAAGCAAUAUUACGCGGA	-2.25 ± 0.14	-0.603 ± 0.13
GAAAAGCAAUAUUACGCUUC	-3.71 ± 0.12	-2.77 ± 0.14

Sequence	self-splicing fitness (ln) (30 °C)	self-splicing fitness (ln) (37 °C)
GAAAAGCAAUAUUACGGACU	0.147 ± 0.069	0.272 ± 0.087
GAAAAGCAAUAUUACGGAUA	-1.32 ± 0.13	-1.18 ± 0.12
GAAAAGCAAUAUUACGGCUU	-0.227 ± 0.082	0.0447 ± 0.096
GAAAAGCAAUAUUACGGGAC	-1.06 ± 0.12	-2.06 ± 0.18
GAAAAGCAAUAUUACGGGAU	-2.18 ± 0.14	-1.26 ± 0.12
GAAAAGCAAUAUUACGGGCC	-1.09 ± 0.14	-1.37 ± 0.17
GAAAAGCAAUAUUACGGGGG	-3.11 ± 0.21	-1.15 ± 0.17
GAAAAGCAAUAUUACGGGGU	-3.91 ± 0.26	-2.32 ± 0.23
GAAAAGCAAUAUUACGGGUG	-2.23 ± 0.079	-1.18 ± 0.1
GAAAAGCAAUAUUACGUAGC	-2.66 ± 0.15	-1.51 ± 0.15
GAAAAGCAAUAUUACGUAUG	-1.6 ± 0.079	-1.74 ± 0.12
GAAAAGCAAUAUUACGUCCA	-0.703 ± 0.064	0.0901 ± 0.089
GAAAAGCAAUAUUACGUCCC	-0.229 ± 0.17	0.0916 ± 0.2
GAAAAGCAAUAUUACGUGAC	-4.06 ± 0.34	-1.17 ± 0.17
GAAAAGCAAUAUUACGUUAG	-2.27 ± 0.12	-1.85 ± 0.14
GAACAGCAAUAUUACGAUAU	-1.36 ± 0.061	-0.525 ± 0.074
GAACAGCAAUAUUACGAUCA	-0.605 ± 0.089	-0.214 ± 0.11
GAACAGCAAUAUUACGAUUA	-0.501 ± 0.11	-0.296 ± 0.098
GAACAGCAAUAUUACGCACG	-1.38 ± 0.18	0.123 ± 0.13
GAACAGCAAUAUUACGCACU	0.254 ± 0.079	0.0329 ± 0.11
GAACAGCAAUAUUACGCCCA	0.617 ± 0.17	-0.316 ± 0.24
GAACAGCAAUAUUACGCCGC		-2.35 ± 0.34
GAACAGCAAUAUUACGCCUC	-1.81 ± 0.17	-1.89 ± 0.26
GAACAGCAAUAUUACGCGUU	-3.27 ± 0.12	-2.69 ± 0.14
